Ends that are not written are not given here. * marks the point of attachment. Biotin = O=C1N[C@H]2[C@H](CS[C@H]2CCCCC(=O)*)N1
Assays:
Assay in all cases: peptide or protein array; E. coli proteome chip: purified His-tagged proteins printed in duplicate on Fullmoon slides, blocked with 1% BSA; 10 nM N-terminal biotinylated LfcinB with 1% BSA, room temperature, 1 h; detected with DyLight 649-labeled streptavidin, ratio to DyLight 549-labeled anti-His antibody; ProCAT normalisation, local cut-off; triplicate chips
Settings in all cases: both partners purified
HyaE = biological target: T1, HyaE (E. coli K-12, UniProt P19931 1-132)
T1 construct: HyaE, E. coli K-12
T1 sequence (looked up): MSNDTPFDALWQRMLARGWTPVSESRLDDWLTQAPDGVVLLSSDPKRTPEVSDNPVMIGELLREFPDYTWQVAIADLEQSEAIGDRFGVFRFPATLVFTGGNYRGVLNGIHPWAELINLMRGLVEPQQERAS

YceC = biological target: T2, YceC (E. coli K-12, UniProt P0AA39 1-319)
T2 construct: YceC, E. coli K-12
T2 sequence (looked up): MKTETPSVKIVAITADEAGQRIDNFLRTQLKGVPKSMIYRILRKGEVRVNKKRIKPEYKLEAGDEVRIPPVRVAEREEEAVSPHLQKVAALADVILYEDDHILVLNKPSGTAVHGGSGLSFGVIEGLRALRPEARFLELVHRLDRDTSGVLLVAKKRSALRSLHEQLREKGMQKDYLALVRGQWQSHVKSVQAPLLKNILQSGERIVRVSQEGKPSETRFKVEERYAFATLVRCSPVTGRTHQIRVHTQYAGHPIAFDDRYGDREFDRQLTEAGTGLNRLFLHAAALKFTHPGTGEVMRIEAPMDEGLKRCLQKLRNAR

YhaJ = biological target: T3, YhaJ (E. coli K-12, UniProt P67660 1-298)
T3 construct: YhaJ, E. coli K-12
T3 sequence (looked up): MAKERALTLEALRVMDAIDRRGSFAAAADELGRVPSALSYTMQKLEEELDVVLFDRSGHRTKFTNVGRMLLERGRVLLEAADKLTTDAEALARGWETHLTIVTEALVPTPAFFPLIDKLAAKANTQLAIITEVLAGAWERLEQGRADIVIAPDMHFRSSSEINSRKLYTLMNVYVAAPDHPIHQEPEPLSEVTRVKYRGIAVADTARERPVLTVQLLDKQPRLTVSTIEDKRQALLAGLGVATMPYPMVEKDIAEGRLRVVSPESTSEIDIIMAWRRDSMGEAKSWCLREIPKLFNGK

YbgE = biological target: T4, YbgE (E. coli K-12, UniProt P0AAV0 1-97)
T4 construct: YbgE, E. coli K-12
T4 sequence (looked up): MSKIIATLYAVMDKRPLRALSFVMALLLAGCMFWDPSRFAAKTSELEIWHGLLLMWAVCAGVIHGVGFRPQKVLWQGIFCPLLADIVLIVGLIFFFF

YihS = biological target: T5, YihS (E. coli K-12, UniProt P32140 1-413)
T5 construct: YihS, E. coli K-12
T5 sequence (looked up): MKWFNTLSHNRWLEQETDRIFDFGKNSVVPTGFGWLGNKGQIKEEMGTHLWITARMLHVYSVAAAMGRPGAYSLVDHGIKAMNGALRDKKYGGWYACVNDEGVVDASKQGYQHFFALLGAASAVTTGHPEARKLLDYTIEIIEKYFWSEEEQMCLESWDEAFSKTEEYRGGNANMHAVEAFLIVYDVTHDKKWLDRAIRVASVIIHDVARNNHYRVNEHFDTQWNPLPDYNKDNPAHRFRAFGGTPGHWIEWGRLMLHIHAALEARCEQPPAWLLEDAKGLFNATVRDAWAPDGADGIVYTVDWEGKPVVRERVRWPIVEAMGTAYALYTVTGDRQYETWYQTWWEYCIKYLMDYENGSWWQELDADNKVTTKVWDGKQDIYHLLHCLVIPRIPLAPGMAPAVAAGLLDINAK

Measured: binding result

B1: N-terminal biotinylated Lactoferricin B (peptide, UniProt P24627 36-60, looked up)
peptide: Biotin-FKCRRWQWRMKKLGAPSITCVRRAF
modifications: ends and bridges not checked
notes: lactoferricin B (LfcinB), cationic antimicrobial peptide of 25 amino acids; also called biotinylated LfcinB; biotin-labeled LfcinB; source: bought: Kelowna Inc
binds: all assays above

From paper PMC3229523, “Identification of Lactoferricin B Intracellular Targets Using an Escherichia coli Proteome Chip” (PLoS ONE, 2011)
